Source: publication PMC11934185

Assays:
Experiment in all cases: LC-MS of Fabs digested from co-expressed IgG
[1] = molecular target: panitumumab heavy chain, CH1 design 767, hole CH3 (human)
[2] = molecular target: ustekinumab heavy chain, WT CH1, knob CH3 (human)
[3] = molecular target: panitumumab heavy chain, CH1 of designs 1328 and 838 (G166K, T187K), hole CH3 (human)
[4] = molecular target: panitumumab heavy chain, CH1 design 1443, hole CH3 (human)
[5] = molecular target: panitumumab heavy chain, WT CH1, hole CH3 (human)
[6] = molecular target: panitumumab heavy chain, CH1 of designs 1148 and 454 (L145S), hole CH3 (human)
[7] = molecular target: panitumumab heavy chain, CH1 design 2529, hole CH3 (human)
[8] = molecular target: panitumumab heavy chain, CH1 design 1039, hole CH3 (human)
[9] = molecular target: panitumumab heavy chain, CH1 design 367, hole CH3 (human)
[10] = molecular target: ustekinumab heavy chain, CH1 design 1039, knob CH3 (human)

Row | % of observed Fabs (co-expressed: m25) [1] | % of observed Fabs (co-expressed: m7) [2] | % of observed Fabs (co-expressed: m17) [2] | % of observed Fabs (co-expressed: m21) [2] | % of observed Fabs (co-expressed: m23) [2] | % of observed Fabs (co-expressed: m25) [2] | % of observed Fabs (co-expressed: m27) [2] | % of observed Fabs (co-expressed: m30) [2] | % of observed Fabs (co-expressed: m32) [2] | % of observed Fabs (co-expressed: m36) [2] | % of observed Fabs (co-expressed: m17) [3] | % of observed Fabs (co-expressed: m3) [4] | % of observed Fabs (co-expressed: m3) [5] | % of observed Fabs (co-expressed: m34) [6] | % of observed Fabs (co-expressed: m11) [7] | % of observed Fabs (co-expressed: m3) [8] | % of observed Fabs (co-expressed: m13) [9] | % of observed Fabs (co-expressed: m40) [10] | % of observed Fabs (co-expressed: m3) [2] | % of observed Fabs (co-expressed: m38) [5] | Substance
1 | 10% | 50% | 50% | 41% | 45% | 41% | 40% | 40% | 41% | 45% | 6% | 8% | 8% | 10% | 18% | 10% | 8% |  |  |  | ustekinumab light chain, WT Cκ
2 |  |  |  |  |  |  |  |  |  |  |  |  | 41% |  |  |  |  | 18% | 21% | 54% | panitumumab light chain, WT Cκ
